Laboratory results published in patent US20240010696A1.

Target: mouse IL-12 receptor on cells (mouse) (UniProt Q60837)
Assay: cell-based or functional assay

mouse IL-12 receptor on cells (mouse), sequence (Q60837 20-738, chain 1 of 2): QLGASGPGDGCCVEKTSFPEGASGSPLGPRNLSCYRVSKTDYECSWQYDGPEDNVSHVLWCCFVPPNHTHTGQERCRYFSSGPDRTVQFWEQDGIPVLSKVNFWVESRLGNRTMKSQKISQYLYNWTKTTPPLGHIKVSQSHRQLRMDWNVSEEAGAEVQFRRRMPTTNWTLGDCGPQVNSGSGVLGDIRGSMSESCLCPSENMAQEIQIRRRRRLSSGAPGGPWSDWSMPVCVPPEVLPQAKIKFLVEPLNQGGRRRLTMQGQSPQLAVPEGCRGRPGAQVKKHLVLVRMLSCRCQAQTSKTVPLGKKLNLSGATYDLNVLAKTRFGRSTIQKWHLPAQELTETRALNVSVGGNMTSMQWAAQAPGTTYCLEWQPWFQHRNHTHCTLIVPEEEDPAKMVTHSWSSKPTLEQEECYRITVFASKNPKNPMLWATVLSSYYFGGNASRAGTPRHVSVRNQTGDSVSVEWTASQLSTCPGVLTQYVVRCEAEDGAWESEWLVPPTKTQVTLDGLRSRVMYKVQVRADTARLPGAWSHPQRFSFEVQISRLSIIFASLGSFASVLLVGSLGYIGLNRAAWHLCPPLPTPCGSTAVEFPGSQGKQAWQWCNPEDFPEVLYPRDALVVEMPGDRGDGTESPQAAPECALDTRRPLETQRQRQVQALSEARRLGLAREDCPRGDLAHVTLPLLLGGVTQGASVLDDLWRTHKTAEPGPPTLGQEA
mouse IL-12 receptor on cells (mouse), sequence (P97378 24-874, chain 2 of 2, further chain): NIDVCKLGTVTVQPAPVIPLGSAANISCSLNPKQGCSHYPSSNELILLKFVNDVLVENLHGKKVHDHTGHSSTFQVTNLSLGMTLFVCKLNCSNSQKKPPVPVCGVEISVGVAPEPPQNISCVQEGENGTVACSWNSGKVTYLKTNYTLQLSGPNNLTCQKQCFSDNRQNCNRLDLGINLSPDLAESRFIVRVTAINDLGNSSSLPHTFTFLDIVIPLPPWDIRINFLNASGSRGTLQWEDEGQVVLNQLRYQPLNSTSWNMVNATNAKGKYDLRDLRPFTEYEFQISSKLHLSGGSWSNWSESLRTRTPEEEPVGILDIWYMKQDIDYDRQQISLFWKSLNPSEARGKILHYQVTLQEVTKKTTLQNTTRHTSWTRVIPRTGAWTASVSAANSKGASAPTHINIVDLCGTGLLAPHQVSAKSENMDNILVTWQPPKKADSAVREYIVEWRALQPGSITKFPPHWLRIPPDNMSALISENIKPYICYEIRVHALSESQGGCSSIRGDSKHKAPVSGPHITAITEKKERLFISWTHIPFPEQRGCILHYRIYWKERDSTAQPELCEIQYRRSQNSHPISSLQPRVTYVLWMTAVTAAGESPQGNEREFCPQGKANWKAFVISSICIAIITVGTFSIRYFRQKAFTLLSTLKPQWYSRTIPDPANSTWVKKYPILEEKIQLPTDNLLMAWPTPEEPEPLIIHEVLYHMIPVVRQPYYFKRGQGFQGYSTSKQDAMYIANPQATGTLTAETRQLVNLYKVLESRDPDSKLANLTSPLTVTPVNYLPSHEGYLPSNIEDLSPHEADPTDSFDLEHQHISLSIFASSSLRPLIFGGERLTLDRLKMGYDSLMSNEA

- Reduction in pSTAT4 production of 2) mutein IL-12 fused to isotype mAb as compared to 1) wild-type IL12 fused to isotype mAb (activated mouse CD4 T cells, flow cytometry): 23200 fold
B1: mIL12 mutein-isotype (mouse IL-12 mutein fused to a human isotype (IgG1) control antibody) (protein, part only; not given: isotype control antibody, part only)
chain: MWELEKDVYVVEVDWTPDAPGETVNLTCDTPEEDDITWTSDQRHGVIGSGKTLTITVKEFLDAGQYTCHKGGETLSHSHLLLHKKENGIWSTEILKNFKNKTFLKCEAPNYSGRFTCSWLVQRNMDLKFNIKSSSSSPDSRAVTCGMASLSAEKVTLDQRDYEKYSVSCQEDVTCPTAEETLPIELALEARQQNKYENYSTSFFIRDIIKPDPPKNLQMKPLKNSQVEVSWEYPDSWSTPHSYFSLKFFVGGGEKMKETEEGCNQKGAFLVEKTSTEVQCKGGNVCVQAQDRYYNSSCSKWACVPCRVRSGGGGGGSRVIPVSGPARCLSQSRNLLKTTDDMVKTAREKLEFYPCTAEDIDHEDITRDQTSTLKTCLPLELHKNESCLATRETSSTTRGSCLPPQKTSLMMTLCLGSIYEDLKMYQTEFQAINAALQNHNHQQIILDKGMLVAIDELMQSLNHNGETLRQKPPVGEADPYRVKMKLCILLHAFSTRVVTINRVMGYLSSA
